# Experimental data as given in patent US20040259198.
# Tested on: recombinant human MAT II β subunit protein with N-terminal poly-His tag, expressed in E. coli from pQE-30 (Clone 5)
substance,measurement,value
recombinant human MAT II α2 subunit expressed in E. coli from the pQE-30 vector,Km (L-Met),the cloned protein lowered the Km (L-Met) of the recombinant human MAT II α2 subunit from 80 µM to 34 µM
same,Km for L-Met in the presence of the MAT II β subunit,"another kinetic form with a Km for L-Met of 32-34 µM was also apparent, in each case"
same,Km of MAT for L-methionine,This association changed the kinetic properties of the enzyme and lowered the Km of MAT for L-methionine
